The target of assay [1] is MLL transactivation domain (Homo sapiens) (UniProt Q03164). The following applies: cited from earlier work.
In assay [2] the target is KIX domain (residues 586-672) of mouse CBP, wild type (mouse) (UniProt P45481). As to the kind of experiment: NMR titration.
Assay [3] deals with KIX domain (residues 586-672) of mouse CBP, L628A (mouse) (UniProt P45481). As to the kind of experiment: NMR titration.
The target in assay [4] is KIX domain (residues 586-672) of mouse CBP, wild type (mouse) (UniProt P45481). As to the kind of experiment: ITC. In general terms: In ITC the heat of successive injections is recorded.

Turning to CBP KIX (from UniProt P45481), the dissociation constant Kd (usually the free concentration of one partner at which half of the binding sites on the other are occupied at equilibrium, for simple one-to-one binding) in assay [1] was 2800 nM.
In the case of “Human MLL transactivation domain (2842-2469 as printed) (domain or fragment)”, in assay [2], the Kd2 (secondary site, two-site model) was 920 µM and the percent of KIX in the MLL-bound form (1:1 KIX:MLL) is 94%. In assay [3], this substance showed a Kd1 (primary site, two-site model) of 220 µM; a Kd2 (secondary site, two-site model) of 1.63 mM; a percent of KIX in the MLL-bound form (1:2 KIX:MLL) of 74%. The Kd in assay [4] is 2100 nM.

The values are drawn from paper PMC2993637.
